Assay results taken from article PMC7134607 (Biochemical and Biophysical Research Communications, 2004).

Biological target: the molecule itself
Assay: enzyme activity versus enzyme concentration

B1: SARS main protease (enzyme)
chain: SGFRKMAFPSGKVEGCMVQVTCGTTTLNGLWLDDTVYCPRHVICTAEDMLNPNYEDLLIRKSNHSFLVQAGNVQLRVIGHSMQNCLLRLKVDTSNPKTPKYKFVRIQPGQTFSVLACYNGSPSGVYQCAMRPNHTIKGSFLNGSCGSVGFNIDYDCVSFCYMHHMELPTGVHAGTDLEGKFYGPFVDRQTAQAAGTDTTITLNVLAWLYAAVINGDRWFLNRFTTTLNDFNLVAMKYNYEPLTQDHVDILGPLSAQTGIAVLDMCAALKELLQNGMNGRTILGSTILEDEFTPFDVVRQCSGVTFQ
  Kd: 15 ± 4 nM
